In one assay the test system is GST-fused ADRB1 C-tail. Nature of the assay: GST-pull down, ADRB1 C-tail. The class given is binding. As to conditions: percent of full-length GASP-1 interaction; three independent experiments. A digest of the protocol:
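C-tails fused to GST were expressed in E. coli BL21 (1mM IPTG, 2 h, 37°C), bound to glutathione-Sepharose and incubated 1 h at 4°C with [35S]-methionine-labelled in vitro translated GASP proteins in Tris-HCl pH 7.4/150 mM NaCl/1% Triton X-100 buffer. Bound GASPs were quantified by SDS-PAGE and phosphorimaging.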

Assay [1] deals with GFP-tagged CALCR in HEK293 cells. Nature of the assay: Co-immunoprecipitation, CALCR. The class given is cell-based. As to conditions: 48 h expression, anti-GFP immunoprecipitation. The method, then: (§1) HEK293 cells stably expressing N-terminal GFP-tagged ADRB1, ADRB2, CALCR and M1 or MyrPalm-mYFP were transfected with pcDNA3.1 containing the sequence for a central domain of GASP-1 (AA 380 to 1073) using JetPEI reagent (polyplus transfection) according to the instructions from the manufacturer. After 48 h of expression, cells were washed twice with PBS and lysed in a buffer containing 10 mM Tris-HCl, pH 7.4, 150 mM NaCl, 25 mM KCl, 0.3% Triton X-100 and cOmplete protease inhibitors (Roche) for 1 h at 4°C under agitation. 500 µg of cleared lysates were incubated with 1 µg of a mouse monoclonal anti-GFP antibody (Invitrogen) overnight at 4°C, followed by an incubation with 40 µl of protein A-Sepharose beads for an additional 2 h at 4°C. Beads were then washed five times in lysis buffer and precipitates were resolved on an 8% gel by SDS–PAGE and electrotransferred to immobilon-P membranes (Millipore) in 50 mM Tris-boric acid for 1 h at 300 mA. Membranes were blocked with 5% non-fat powder milk in TBS-Tween (50 mM Tris-HCl pH 8, 150 mM NaCl, 0.4% Tween-20) for 1 h at room temperature. […] For immunodetection of GASP or GFP-tagged receptors directly from cell lysates, 10 µg of proteins were loaded on SDS gels and analyzed following the procedure described above. Finally, membranes were washed in TBS-Tween and detected by chemiluminescence (ECL prime, GE Healthcare). […]

Assay [2] has as its system MyrPalm-mYFP in HEK293 cells. The assay is described as follows: Co-immunoprecipitation, MyrPalm-mYFP (negative control). The class given is cell-based. The following applies: 48 h expression, anti-GFP immunoprecipitation. The method, then: as §1

B1: central domain of GASP-1: central portion of GASP-1 (AA 380 to 1073) that contains 19 GASP motif (protein)
chain: MTKEEAKTKARARAKQEARSEEEALIGTWFWATDESSMADEASIESSLQVEDESIIGSWFWTEEEASMGTGASSKSRPRTDGERIGDSLFGAREKTSMKTGAEATSESILAADDEQVIIGSWFWAGEEVNQEAEEETIFGSWFWVIDAASVESGVGVSCESRTRSEEEEVIGPWFWSGEQVDIEAGIGEEARPGAEEETIFGSWFWAENQTYMDCRAETSCDTMQGAEEEEPIIGSWFWTRVEACVEGDVNSKSSLEDKEEAMIPCFGAKEEVSMKHGTGVRCRFMAGAEETNNKSCFWAEKEPCMYPAGGGSWKSRPEEEEDIVNSWFWSRKYTKPEAIIGSWLWATEESNIDGTGEKAKLLTEEETIINSWFWKEDEAISEATDREESRPEAEEGDIIGSWFWAGEEDRLEPAAETREEDRLAAEKEGIVGSWFGAREETIRREAGSCSKSSPKAEEEEVIIGSWFWEEEASPEAVAGVGFESKPGTEEEEITVGSWFWPEEEASIQAGSQAVEEMESETEEETIFGSWFWDGKEVSEEAGPCCVSKPEDDEEMIVESWFWSRDKAIKETGTVATCESKPENEEGAIVGSWFEAEDEVDNRTDNGSNCGSRTLADEDEAIVGSWFWAGDEAHFESNPSPVFRAICRSTCSVEQEPDPSRRPQSWEEVTVQFKPGPWGRVGFPSISPFRFPKE
modifications: left off: GST, N-terminal, kept
notes: central portion of GASP-1 (AA 380 to 1073) that contains 19 GASP motif
On to B1, for which the “interaction with ADRB1 C-tail relative to full-length GASP-1” value in the assay with GST-fused ADRB1 C-tail was “around 70%”. In assay [1], the “co-immunoprecipitation with CALCR” value is listed as “co-immunoprecipitated”. In addition, the “co-immunoprecipitation with MyrPalm-mYFP” value in assay [2] was “no co-immunoprecipation was observed”.

(Values after article PMC3575409, “Identification of a Novel Protein-Protein Interaction Motif Mediating Interaction of GPCR-Associated Sorting Proteins with G Protein-Coupled Receptors” (PLoS ONE, 2013).)
